According to patent publication US20230174651A1:

Tests used:
[1] = biological target: CD79b CAR with CD8α hinge as the spacer; assay: flow cytometry, Jurkat cells transduced with construct CAR-2, fluorescently labelled second antibody; gate set on untransduced (UTD) cells
Target sequence (P01732 138-182): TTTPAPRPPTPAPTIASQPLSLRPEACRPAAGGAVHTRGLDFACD

[2] = biological target: CD79b CAR with CD8α hinge as the spacer; assay: flow cytometry, Jurkat cells transduced with construct CAR-3, fluorescently labelled second antibody; gate set on untransduced (UTD) cells
[3] = biological target: CD79b CAR with CD8α hinge as the spacer; assay: flow cytometry, Jurkat cells transduced with construct CAR-6, fluorescently labelled second antibody; gate set on untransduced (UTD) cells
[4] = biological target: CD79b CAR with CD8α hinge as the spacer; assay: flow cytometry, Jurkat cells transduced with construct CAR-4, fluorescently labelled second antibody; gate set on untransduced (UTD) cells
[5] = biological target: CD79b CAR with CD8α hinge as the spacer; assay: flow cytometry, Jurkat cells transduced with construct CAR-5, fluorescently labelled second antibody; gate set on untransduced (UTD) cells
[6] = biological target: CD79b CAR with CD8α hinge as the spacer; assay: flow cytometry, Jurkat cells transduced with construct CAR-1, fluorescently labelled second antibody; gate set on untransduced (UTD) cells

B1: mouse FC version of CD8B575 (purified from mouse hybridoma clone) (antibody, V domains shown)
VH: QVQLQQSGGGLVQPGGSLKLSCAASGFTFSNYYMSWARQTPEKRLEWVAYISNDGDATYYPDSVKGRFTISRDNAKNTLYLQMSSLKSEDTAMYYCTREDYYSDYWFASWGQGTTVTVSS
VL: DIVMTQSQKFMSTTIEDRVSITCKASQNVGTAVAWYQQKPGQSPKLLIYSTSNRYTGVPDRFTGSGSGTDFTLTISNIQSEDLADYFCQQYSSYPLTFGGGTKLEIK
- % positive (CAR+ Jurkat cells) [1]: 41.7%
- % positive (CAR+ Jurkat cells) [2]: 15.9%
- % positive (CAR+ Jurkat cells) [3]: 84%
- % positive (CAR+ Jurkat cells) [4]: 54.1%
- % positive (CAR+ Jurkat cells) [5]: 84.5%
- % positive (CAR+ Jurkat cells) [6]: 13%
